Source: patent US20150216795A1 (SANOFI, priority 2012, published 2015)

Assays:
[1] = test system: patients with metastatic colorectal cancer (MCRC)
From the text: Each randomized patient was to be treated until disease progression, death, or unacceptable toxicity.
Treatment arms were evenly balanced for demographics, disease characteristics and prior anti-cancer treatments, including prior exposition to bevacizumab.
Patients received a median of 9 cycles of ZALTRAP/FOLFIRI or 8 cycles of placebo/FOLFIRI.

[2] = test system: patients with metastatic colorectal cancer (MCRC); experiment: EFC10262 (VELOUR) randomized double-blind phase 3 study: efficacy (OS, PFS, response rate);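 also: Placebo-controlled comparison, both arms on FOLFIRI every 2 weeks until progression or intolerable toxicity, in patients progressing on or within 6 months after oxaliplatin-based combination chemotherapy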
From the text: Each randomized patient was to be treated until disease progression, death, or unacceptable toxicity. […] The predefined statistical significance level for this final analysis was 0.0466 after adjusting the type I error spent for the two interim analyses using the O'Brien-Fleming spending function.
The study included one formal interim analysis, planned for the purpose of efficacy, when 561 death events (65% information time) had occurred. Upon request of the independent Data Monitoring Committee (DMC), an additional interim analysis of OS was performed to provide an early evaluation of the benefit-risk ratio, when 315 death events (36.5% information fraction) had occurred.
A total of approximately 863 deaths were required to detect 20% hazard rate reduction in OS with 90% power using the two-sided log rank test at an overall 0.0499 alpha level. The median survival times was expected to be 11 months for the control group. The overall alpha level was split between overall survival (0.0499) and progression-free survival as a secondary efficacy endpoint (0.0001).
Approximately 1200 patients (i.e. 600 patients per treatment group) were planned to be randomized. Treatment assignment was stratified according to prior therapy with bevacizumab (yes or no), and ECOG performance status (PS) (0 vs 1 vs 2).
The enrolment started in November 2007 and was completed in March 2010. A total of 1226 patients were randomized. […] Treatment arms were evenly balanced for demographics, disease characteristics and prior anti-cancer treatments, including prior exposition to bevacizumab.
Immediately after, patients received irinotecan, 5-FU and leucovorin (FOLFIRI regimen). This treatment was repeated every 2 weeks.
Study 1 was a randomized, double-blind, placebo-controlled study in patients with metastatic colorectal cancer (mCRC) who are resistant to or have progressed during or within 6 months of receiving oxaliplatin-based combination chemotherapy, with or without prior bevacizumab. A total of 1226 patients were randomized (1:1) to receive either ZALTRAP (N=612; 4 mg per kg as a 1 hour intravenous infusion on day 1) or placebo (N=614), in combination with 5-fluorouracil plus irinotecan [FOLFIRI: irinotecan 180 mg per m2 IV infusion over 90 minutes and leucovorin (dl racemic) 400 mg per m^2 intravenous infusion over 2 hours at the same time on day 1 using a Y-line, followed by 5-FU 400 mg per m^2 intravenous bolus, followed by 5-FU 2400 mg per m^2 continuous intravenous infusion over 46-hours]. The treatment cycles on both arms were repeated every 2 weeks. Patients were treated until disease progression or unacceptable toxicity. The primary efficacy endpoint was overall survival. Treatment assignment was stratified by the ECOG performance status (0 versus 1 versus 2) and according to prior therapy with bevacizumab (yes or no).

[3] = adverse reaction, N = 611, listed as ZALTRAP/FOLFIRI
[4] = compilation of clinical and laboratory data, N = 611, listed as ZALTRAP/FOLFIRI
[5] = Kaplan-Meier, IRC, ITT population
[6] = by IRC, evaluable patient population N = 531
[7] = overall survival, Kaplan-Meier, ITT population

## Ziv-aflibercept/Folfiri: ziv-aflibercept 4 mg/kg in combination with FOLFIRI (folinic acid, 5-fluorouracil and irinotecan) given intravenously every 2 weeks
[1]; 1 patient
  Grade 4 hypertension (hypertensive crisis): 0.2%
[1]; 2 patients
  Grade 3 compromised wound healing: 0.3%
  Nephrotic syndrome: 0.5%
[1]; 9 of 611 patients with mCRC
  fistulas (anal, enterovesical, enterocutaneous, colovaginal, intestinal sites): 1.5%
[1]; 11 patients
  Grade 3-4 ATE: 1.8%
[1]; Safety population N = 611
  Patients with any TEAE: 606 (99.2%) number (%) of patients
  Patients with any TEAE leading to death: 37 (6.1%) number (%) of patients
  Patients with any TEAE leading to permanent treatment discontinuation: 164 (26.8%) number (%) of patients
  Patients with any TEAE leading to premature treatment discontinuation: 119 (19.5%) number (%) of patients
  Patients with any grade 3-4 TEAE: 510 (83.5%) number (%) of patients
  Patients with any related TEAE leading to death: 6 (1.0%) number (%) of patients
  Patients with any serious TEAE: 294 (48.1%) number (%) of patients
[1]; Study 1
  Cycle delays >7 days: 60 % of patients
  Infections, Grade 3-4: 12%
  Infections, all grades: 46%
[1]; TEAE, safety population
  Alopecia (PT), All Gr: 26.8 % of patients
  Asthenic condition (HLT), All Gr: 60.4 % of patients
  Asthenic condition (HLT), Gr 3/4: 16.9 % of patients
  Constipation (PT), All Gr: 22.4 % of patients
  Constipation (PT), Gr 3/4: 0.8 % of patients
  Decrease appetite (PT), All Gr: 31.9 % of patients
  Decrease appetite (PT), Gr 3/4: 3.4 % of patients
  Dehydration (PT), All Gr: 9.0 % of patients
  Diarrhea (PT), All Gr: 69.2 % of patients
  Dysphonia (PT), All Gr: 25.4 % of patients
  Epistaxis (PT), All Gr: 27.7 % of patients
  GI and abdominal pains (HLT), All Gr: 34.0 % of patients
  GI and abdominal pains (HLT), Gr 3/4: 5.4 % of patients
  Headache (PT), All Gr: 22.3 % of patients
  Hypertension (grouping), All Gr: 41.4 % of patients
  Hypertension (grouping), Gr 3/4: 19.3 % of patients
  Infections (SOC), All Gr: 46.2 % of patients
  Musculoskeletal & connective pain & discomfort (HLT), All Gr: 23.1 % of patients
  Musculoskeletal & connective pain & discomfort (HLT), Gr 3/4: 1.3 % of patients
  Nausea (PT), All Gr: 53.4 % of patients
  Palmar plantar erythrodysaesthesia (PT), All Gr: 11.0 % of patients
  Palmar plantar erythrodysaesthesia (PT), Gr 3/4: 2.8 % of patients
  Skin hyperpigmentation (PT), All Gr: 8.2 % of patients
  Skin hyperpigmentation (PT), Gr 3/4: 0 % of patients
  Stomatitis & ulceration (HLT), All Gr: 54.8 % of patients
  Stomatitis & ulceration (HLT), Gr 3/4: 13.7 % of patients
  Vomiting (PT), All Gr: 32.9 % of patients
  Weight decrease (PT), All Gr: 31.9 % of patients
  Weight decrease (PT), Gr 3/4: 2.6 % of patients
[1]; adverse reaction, N = 611
  Abdominal Pain Upper, All grades: 11%
  Abdominal Pain Upper, Grades 3-4: 1%
  Abdominal Pain, All grades: 27%
  Abdominal Pain, Grades 3-4: 4%
  Asthenia, All grades: 18%
  Asthenia, Grades 3-4: 5%
  Decreased Appetite, All grades: 32%
  Decreased Appetite, Grades 3-4: 3%
  Dehydration, All grades: 9%
  Diarrhea, All grades: 69%
  Dysphonia, All grades: 25%
  Dyspnea, All grades: 12%
  Epistaxis, All grades: 28%
  Fatigue, All grades: 48%
  Fatigue, Grades 3-4: 13%
  Headache, All grades: 22%
  Headache, Grades 3-4: 2%
  Hemorrhoids, All grades: 6%
  Hemorrhoids, Grades 3-4: 0%
  Hypertension, All grades: 41%
  Hypertension, Grades 3-4: 19%
  Leukopenia, All grades: 78%
  Leukopenia, Grades 3-4: 16%
  Neutropenia, All grades: 67%
  Oropharyngeal Pain, All grades: 8%
  Palmar-Plantar Erythrodysesthesia Syndrome, All grades: 11%
  Palmar-Plantar Erythrodysesthesia Syndrome, Grades 3-4: 3%
  Proctalgia, All grades: 5%
  Rectal Hemorrhage, All grades: 5%
  Rhinorrhea, All grades: 6%
  Rhinorrhea, Grades 3-4: 0%
  Skin Hyperpigmentation, All grades: 8%
  Skin Hyperpigmentation, Grades 3-4: 0%
  Stomatitis, All grades: 50%
  Stomatitis, Grades 3-4: 13%
  Thrombocytopenia, All grades: 48%
  Thrombocytopenia, Grades 3-4: 3%
  Urinary Tract Infection, All grades: 9%
  Weight decreased, All grades: 32%
  Weight decreased, Grades 3-4: 3%
[1]; [3]
  Dehydration, Grades 3-4: 4%
  Diarrhea, Grades 3-4: 19%
  Neutropenia, Grades 3-4: 37%
[1]; among patients developing Grade 3-4 hypertension
  onset of Grade 3-4 hypertension during the first two cycles of treatment: 54%
[1]; [4]
  Proteinuria, All grades: 62%
  Proteinuria, Grades 3-4: 8%
[1]; including gastrointestinal hemorrhage, hematuria, post-procedural hemorrhage
  Grade 3-4 hemorrhagic events: 3%
[1]; laboratory finding, N = 611
  ALT increased, All grades: 50%
  ALT increased, Grades 3-4: 3%
  AST increased, All grades: 62%
  AST increased, Grades 3-4: 3%
  Serum creatinine increased, All grades: 23%
  Serum creatinine increased, Grades 3-4: 0%
[1]; patients with mCRC
  Arterial thromboembolic events (ATE): 2.6%
  Grade 3-4 VTE: 8%
  Grade 3-4 febrile neutropenia: 4%
  Grade 3-4 neutropenic infection/sepsis: 1.5%
  Grade 3 hypertension: 19%
  Pulmonary embolism: 5%
  bleeding/hemorrhage (all grades): 38%
  severe hypersensitivity reactions: 0.3%
  venous thromboembolic events (VTE): 9%
[2]; [5]
  PFS, Probability of surviving (99.99% CI), 3 months: 0.793
  PFS, Probability of surviving (99.99% CI), 6 months: 0.573
  PFS, Probability of surviving (99.99% CI), 9 months: 0.313
  PFS, Probability of surviving (99.99% CI), 12 months: 0.166
  PFS, Probability of surviving (99.99% CI), 18 months: 0.051
[2]; Study 1, IRC
  Progression Free Survival: Number of events, n (%): 393 (64.2%) n (%)
[2]; Study 1, N = 612
  Overall Survival: Number of deaths, n (%): 403 (65.8%) n (%)
[2]; [6]
  Best Overall Response: Not evaluable, %: (4.0%)
  Best Overall Response: Partial response, %: (19.8%)
  Best Overall Response: Progressive disease, %: (10.4%)
  Best Overall Response: Stable disease, %: (65.9%)
  Overall Response: Responders (Complete response or Partial response), %: (19.8%)
[2]; [7]
  Survival probability (95.34% CI), 3 months: 0.931
  Survival probability (95.34% CI), 6 months: 0.819
  Survival probability (95.34% CI), 9 months: 0.687
  Survival probability (95.34% CI), 12 months: 0.561
  Survival probability (95.34% CI), 18 months: 0.385
  Survival probability (95.34% CI), 24 months: 0.280
[2]; patients who received prior bevacizumab
  overall survival HR (95% CI): 0.86
[2]; patients without prior bevacizumab exposure
  overall survival HR (95% CI): 0.79
